This data set concerns Saccharomyces cerevisiae. The data set is described as follows: protein stability index of tFT-peptide fusion (C-terminal peptide) (PSI (0-1 scale)); higher = more stable (slower turnover). Conditions: temperature: 30 C. On the procedure:
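MPS profiling in S. cerevisiae of the yeast C-terminome library: the last 12 aa of each annotated ORF are fused to the C-terminus of a sfGFP-mCherry timer, after a GGGS linker. Cells are FACS-sorted into 8 mCherry/sfGFP bins and deep-sequenced. PSI runs from 0 (unstable) to 1 (stable); wild type and das1Δ backgrounds, two technical replicates each.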

Where [1] appears, read: genetic background: das1 deletion.

± gives the standard deviation of the averaged measurements.

IIDELEQIALQQ [BRE2 C-terminal 12 aa]: the protein stability index amounted to 0.69735 ± 0.00015 under setting [1] and 0.748 ± 0.04 (genetic background: wild type).
In the same order, the values of IIDELQKCHMQE [CDC27 C-terminal 12 aa] are 0.706 ± 0.0081 and 0.6895 ± 0.0016.
In the same order, the values of IKCKMPWSSPRQ [YOR238W C-terminal 12 aa] are 0.705 ± 0.03 and 0.744 ± 0.032.
For ILDLDPRTEAYC [YGL260W C-terminal 12 aa], in that order: 0.733 ± 0.02 and 0.691 ± 0.013.
The sequence ILDMFAKRWILS [IZH3 C-terminal 12 aa] returned a protein stability index under setting [1] of 0.697 ± 0.015 and a protein stability index (genetic background: wild type) of 0.552 ± 0.043.
For ILDSFEEWSDEE [HDA1 C-terminal 12 aa], in that order: 0.7224 ± 0.0053 and 0.688 ± 0.0073.
In the same order, the values of ILFSFFCNLVAK [VTC4 C-terminal 12 aa] are 0.524 ± 0.011 and 0.4997 ± 0.0011.
In the same order, the values of ILKKNPDYREEE [RPN1 C-terminal 12 aa] are 0.696 ± 0.0054 and 0.7029 ± 0.0058.
As for ILTLVETLSEQE [VMA22 C-terminal 12 aa], the protein stability index runs as follows: under setting [1], 0.704 ± 0.009; (genetic background: wild type) 0.7049 ± 0.0056.
For INDKYKSNRTDS [ATG2 C-terminal 12 aa], in that order: 0.697 ± 0.022 and 0.7162 ± 0.00084.
Take INGIIDPSELSD [ALO1 C-terminal 12 aa]: the protein stability index by setting is: under setting [1], 0.69 ± 0.029; (genetic background: wild type) 0.68 ± 0.0073.
In the same order, the values of INIVVDMLASQH [RMD1 C-terminal 12 aa] are 0.606 ± 0.025 and 0.591 ± 0.011.
In the same order, the values of IPLVISYCISEE [ATX2 C-terminal 12 aa] are 0.575 ± 0.013 and 0.596 ± 0.024.
IPNIFGKFTVTS [YKL091C C-terminal 12 aa] registered a protein stability index under setting [1] of 0.697 ± 0.0085 and a protein stability index (genetic background: wild type) of 0.683 ± 0.013.
Regarding IQAMLKSLDSLK [SNL1 C-terminal 12 aa], the protein stability index by setting is: under setting [1], 0.691 ± 0.034; (genetic background: wild type) 0.66 ± 0.03.
IQEDSPVMDNNT [FAP1 C-terminal 12 aa]: the protein stability index under setting [1] was determined as 0.722 ± 0.041 and the protein stability index (genetic background: wild type) turned out to be 0.674 ± 0.036.
For IQVVKSKVLNIE [YDR248C C-terminal 12 aa], in that order: 0.691 ± 0.028 and 0.653 ± 0.016.
As to IRSLPLPFPHMD [MIG1 C-terminal 12 aa], the protein stability index runs as follows: under setting [1], 0.723 ± 0.0091; (genetic background: wild type) 0.757 ± 0.053.
On to IVNVMFCLVRGF [DSC3 C-terminal 12 aa], for which the protein stability index under setting [1] turned out to be 0.42 ± 0.021 and the protein stability index (genetic background: wild type) came out at 0.404 ± 0.03.
For IVTKMDLLSYLA [CYS4 C-terminal 12 aa], in that order: 0.674 ± 0.013 and 0.478 ± 0.0082.
Take IWCAPTVDARPI [NIT1 C-terminal 12 aa]: the protein stability index turned out to be 0.7229 ± 0.0014 under setting [1] and 0.6998 ± 0.0015 (genetic background: wild type).
IYENDPNTKKNN [ERG3 C-terminal 12 aa]: the protein stability index is, setting by setting: under setting [1], 0.736 ± 0.022; (genetic background: wild type) 0.72 ± 0.049.
Take KAASLSLKSTKY [PRP5 C-terminal 12 aa]: the protein stability index reads like this: under setting [1], 0.71161 ± 0.00019; (genetic background: wild type) 0.673 ± 0.013.
In the same order, the values of KADIACAGKQLI [YHL042W C-terminal 12 aa] are 0.676 ± 0.0096 and 0.698 ± 0.0097.
In the same order, the values of KADNWKCKIQSA [GDA1 C-terminal 12 aa] are 0.69 ± 0.018 and 0.641 ± 0.011.
In the same order, the values of KAERCQYRLVTA [YCR025C C-terminal 12 aa] are 0.475 ± 0.031 and 0.508 ± 0.012.
As to KAFFISKTLPCI [YLR112W C-terminal 12 aa], the protein stability index by setting is: under setting [1], 0.7141 ± 0.0031; (genetic background: wild type) 0.766 ± 0.07.
For the sequence KAMILTSYRYLE [CLP1 C-terminal 12 aa], the protein stability index was 0.675 ± 0.035 under setting [1] and 0.677 ± 0.056 (genetic background: wild type).
For KCVNCGHRWKEN [RPC11 C-terminal 12 aa], in that order: 0.708 ± 0.012 and 0.616 ± 0.02.
For KDFQVNKEIKPY [SIR4 C-terminal 12 aa], in that order: 0.713 ± 0.052 and 0.7378 ± 0.00099.
For KDGDVVYDNGFM [CHS7 C-terminal 12 aa], in that order: 0.7085 ± 0.007 and 0.692 ± 0.01.
As for KDINLSEGNENE [URA8 C-terminal 12 aa], the protein stability index reads like this: under setting [1], 0.6774 ± 0.005; (genetic background: wild type) 0.666 ± 0.067.
Regarding KDKKKDKSNSSI [HMO1 C-terminal 12 aa], the protein stability index runs as follows: under setting [1], 0.7022 ± 0.0049; (genetic background: wild type) 0.691 ± 0.052.
For KDSIKLLDKARL [MSS2 C-terminal 12 aa], in that order: 0.774 ± 0.021 and 0.781 ± 0.085.
In the same order, the values of KDVIEEALSRFG [UTP7 C-terminal 12 aa] are 0.704 ± 0.0086 and 0.677 ± 0.027.
For KEKSESLQEEIN [YET3 C-terminal 12 aa], the protein stability index by setting is: under setting [1], 0.691 ± 0.0081; (genetic background: wild type) 0.71 ± 0.032.
In the same order, the values of KFDKALYKKTTG [YMR206W C-terminal 12 aa] are 0.712 ± 0.038 and 0.669 ± 0.03.
In the same order, the values of KFKIQNILNSTF [SIP4 C-terminal 12 aa] are 0.714 ± 0.011 and 0.711 ± 0.0095.
In the same order, the values of KGLFWDPACVIA [MFA2 C-terminal 12 aa] are 0.731 ± 0.022 and 0.728 ± 0.029.
Turning to KGLQTVVVEEDA [RPL31A C-terminal 12 aa], the protein stability index was 0.6888 ± 0.0012 under setting [1] and 0.683 ± 0.0082 (genetic background: wild type).
In the case of KHASELSSNSKF [CTA1 C-terminal 12 aa], the protein stability index under setting [1] turned out to be 0.702 ± 0.029 and the protein stability index (genetic background: wild type) is 0.681 ± 0.048.
In the case of KHDVLSTLPHNN [SKO1 C-terminal 12 aa], the protein stability index under setting [1] was determined as 0.7043 ± 0.0056 and the protein stability index (genetic background: wild type) was 0.687 ± 0.011.
In the same order, the values of “KHKNILLFNNNT [YAL068W-A C-terminal 12 aa]” are 0.699 ± 0.011 and 0.686 ± 0.017.
For KHVMMDMQQPSQ [MRPS17 C-terminal 12 aa], in that order: 0.699 ± 0.022 and 0.674 ± 0.027.
For “KILVFDKNLMNR [YLR154W-E C-terminal 12 aa]”, in that order: 0.699 ± 0.0098 and 0.688 ± 0.019.
As for KKDFNEDDSLFG [VPS55 C-terminal 12 aa], the protein stability index by setting is: under setting [1], 0.722 ± 0.013; (genetic background: wild type) 0.694 ± 0.0072.
For KKKRNKNKKAGK [ETP1 C-terminal 12 aa], in that order: 0.691 ± 0.023 and 0.698 ± 0.014.
For KKKSKSSKKVKV [ESF1 C-terminal 12 aa], in that order: 0.707 ± 0.017 and 0.653 ± 0.0087.
Turning to KKQLLPSKTVDN [HED1 C-terminal 12 aa], the protein stability index came to 0.688 ± 0.013 under setting [1] and 0.66 ± 0.04 (genetic background: wild type).
In the same order, the values of KKRDPITGEVFE [ERG5 C-terminal 12 aa] are 0.6849 ± 0.0021 and 0.667 ± 0.016.
For KLDVDDEENEGF [MRD1 C-terminal 12 aa], in that order: 0.684 ± 0.029 and 0.653 ± 0.011.
Consider KLENESLPNLSG [TRI1 C-terminal 12 aa], for which the protein stability index was 0.691 ± 0.013 under setting [1] and 0.685 ± 0.016 (genetic background: wild type).
For KNEELSKKHFSK [ROK1 C-terminal 12 aa], in that order: 0.718 ± 0.013 and 0.74 ± 0.12.
For KPPKNKYKVVRR [SEC65 C-terminal 12 aa], in that order: 0.714 ± 0.03 and 0.681 ± 0.0014.
In the same order, the values of KQKDKEKNALLL [YBR113W C-terminal 12 aa] are 0.689 ± 0.016 and 0.6802 ± 0.0029.
KRKRRKVRARSK [RPL41A C-terminal 12 aa] displayed a protein stability index under setting [1] of 0.7678 ± 0.006 and a protein stability index (genetic background: wild type) of 0.764 ± 0.066.
Regarding KSASSSPAPKDT [TRM10 C-terminal 12 aa], the protein stability index is, setting by setting: under setting [1], 0.693 ± 0.013; (genetic background: wild type) 0.708 ± 0.011.
In the same order, the values of KTDPNEPANDYR [DLD1 C-terminal 12 aa] are 0.6799 ± 0.00072 and 0.686 ± 0.032.
In the same order, the values of KTFSYKRPSTFY [RPL20A C-terminal 12 aa] are 0.6745 ± 0.0049 and 0.732 ± 0.039.
In the same order, the values of KTGKEVRSGKQL [ATX1 C-terminal 12 aa] are 0.689 ± 0.0069 and 0.679 ± 0.022.
With KTYLNFADNGQI [ELM1 C-terminal 12 aa], the protein stability index came to 0.675 ± 0.0079 under setting [1] and 0.721 ± 0.062 (genetic background: wild type).
In the same order, the values of KVESSDCSFEFA [VID24 C-terminal 12 aa] are 0.6988 ± 0.0069 and 0.696 ± 0.011.
On to KVNENWKRYGYK [FDC1 C-terminal 12 aa], for which the protein stability index was 0.6814 ± 0.0052 under setting [1] and 0.703 ± 0.027 (genetic background: wild type).
In the same order, the values of KYGIYLKEKTVA [LYS9 C-terminal 12 aa] are 0.663 ± 0.013 and 0.4895 ± 0.0018.
In the same order, the values of “KYILAWLRKVLL [YFL012W-A C-terminal 12 aa]” are 0.651 ± 0.031 and 0.456 ± 0.013.
Take LAFYLRRLTAKK [RPS8A C-terminal 12 aa]: the protein stability index runs as follows: under setting [1], 0.674 ± 0.041; (genetic background: wild type) 0.657 ± 0.0076.
In the same order, the values of LCHSSHIPETLK [MSN1 C-terminal 12 aa] are 0.719 ± 0.033 and 0.663 ± 0.042.

Source of the values: the supplement of paper PMC10724198.
